Results as given in publication doi:10.1101/2024.12.18.629111 (bioRxiv, 2024).
Where a chain is given by its changes, count along the chain named.

T1: GST-Ebs1 (aa 1-591) (S. cerevisiae, UniProt Q03466 1-591)
T1 sequence (looked up): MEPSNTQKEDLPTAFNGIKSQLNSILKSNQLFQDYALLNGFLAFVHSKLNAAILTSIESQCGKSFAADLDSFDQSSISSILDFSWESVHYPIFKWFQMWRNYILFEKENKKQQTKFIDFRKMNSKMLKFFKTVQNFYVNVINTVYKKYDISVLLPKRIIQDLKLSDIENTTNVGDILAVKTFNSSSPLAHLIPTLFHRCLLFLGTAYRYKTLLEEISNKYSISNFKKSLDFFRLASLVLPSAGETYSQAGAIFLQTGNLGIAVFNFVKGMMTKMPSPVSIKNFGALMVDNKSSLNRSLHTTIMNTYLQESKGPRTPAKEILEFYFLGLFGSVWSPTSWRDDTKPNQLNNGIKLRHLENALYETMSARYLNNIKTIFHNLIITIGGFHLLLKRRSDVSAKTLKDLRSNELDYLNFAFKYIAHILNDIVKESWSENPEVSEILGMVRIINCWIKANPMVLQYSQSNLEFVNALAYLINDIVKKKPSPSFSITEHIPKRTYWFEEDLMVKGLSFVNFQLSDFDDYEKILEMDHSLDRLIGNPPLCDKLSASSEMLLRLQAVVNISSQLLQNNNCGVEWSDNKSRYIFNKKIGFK

T2: CBP-Upf1-FL (S. cerevisiae, UniProt P30771 1-971)
T2 sequence (looked up): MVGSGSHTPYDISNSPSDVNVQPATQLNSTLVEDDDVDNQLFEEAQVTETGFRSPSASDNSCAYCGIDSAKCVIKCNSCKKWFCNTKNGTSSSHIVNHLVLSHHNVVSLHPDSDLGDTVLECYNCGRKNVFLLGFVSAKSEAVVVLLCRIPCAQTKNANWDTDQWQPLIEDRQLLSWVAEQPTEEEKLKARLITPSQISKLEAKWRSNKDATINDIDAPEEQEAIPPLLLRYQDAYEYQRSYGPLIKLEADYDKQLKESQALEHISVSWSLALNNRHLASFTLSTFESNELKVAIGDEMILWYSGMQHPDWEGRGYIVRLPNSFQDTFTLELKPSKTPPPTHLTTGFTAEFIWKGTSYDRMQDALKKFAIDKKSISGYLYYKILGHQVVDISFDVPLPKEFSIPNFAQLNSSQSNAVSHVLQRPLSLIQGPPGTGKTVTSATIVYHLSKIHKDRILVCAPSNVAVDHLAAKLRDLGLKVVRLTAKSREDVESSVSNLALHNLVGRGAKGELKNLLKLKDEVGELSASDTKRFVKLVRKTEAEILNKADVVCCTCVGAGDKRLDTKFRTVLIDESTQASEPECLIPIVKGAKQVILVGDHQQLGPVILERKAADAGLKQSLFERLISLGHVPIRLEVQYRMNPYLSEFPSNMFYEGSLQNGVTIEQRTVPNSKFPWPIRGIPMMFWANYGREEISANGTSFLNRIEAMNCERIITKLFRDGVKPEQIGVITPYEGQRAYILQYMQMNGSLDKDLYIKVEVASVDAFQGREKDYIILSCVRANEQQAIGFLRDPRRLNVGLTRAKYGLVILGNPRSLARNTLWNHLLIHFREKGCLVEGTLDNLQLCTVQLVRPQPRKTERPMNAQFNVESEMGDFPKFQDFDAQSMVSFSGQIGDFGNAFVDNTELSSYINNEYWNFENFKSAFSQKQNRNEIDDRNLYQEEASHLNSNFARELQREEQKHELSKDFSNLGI

T3: CBP-Upf1-CH-HD (S. cerevisiae, UniProt P30771 54-851)
T3 sequence (looked up): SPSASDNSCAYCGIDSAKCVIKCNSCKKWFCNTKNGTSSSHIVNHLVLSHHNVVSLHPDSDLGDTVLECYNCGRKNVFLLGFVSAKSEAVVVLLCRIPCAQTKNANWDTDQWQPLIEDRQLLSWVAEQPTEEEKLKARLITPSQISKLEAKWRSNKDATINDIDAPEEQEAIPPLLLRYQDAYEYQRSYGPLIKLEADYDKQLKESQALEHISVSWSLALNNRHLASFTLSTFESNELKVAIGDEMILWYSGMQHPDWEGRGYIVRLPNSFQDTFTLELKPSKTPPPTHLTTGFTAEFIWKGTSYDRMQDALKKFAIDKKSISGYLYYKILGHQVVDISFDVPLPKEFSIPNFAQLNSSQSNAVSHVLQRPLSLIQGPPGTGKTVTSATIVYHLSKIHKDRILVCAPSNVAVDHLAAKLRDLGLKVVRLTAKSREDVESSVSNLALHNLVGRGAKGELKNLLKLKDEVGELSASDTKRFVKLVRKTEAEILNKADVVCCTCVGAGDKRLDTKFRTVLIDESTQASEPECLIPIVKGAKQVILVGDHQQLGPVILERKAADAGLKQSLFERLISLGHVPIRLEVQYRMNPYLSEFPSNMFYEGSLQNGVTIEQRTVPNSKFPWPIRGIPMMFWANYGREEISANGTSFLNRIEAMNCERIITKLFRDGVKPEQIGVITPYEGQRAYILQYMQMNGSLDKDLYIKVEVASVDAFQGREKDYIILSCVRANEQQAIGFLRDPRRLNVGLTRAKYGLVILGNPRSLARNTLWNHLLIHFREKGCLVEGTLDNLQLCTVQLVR

T4: CBP-Upf1-CH-HD I693R (S. cerevisiae, UniProt P30771 54-851, I693R)
T4 sequence (looked up): T3 sequence (looked up) with I640R

T5: FITC-labeled Dcp2-UBD2 peptide (aa 694-718) (S. cerevisiae, UniProt P53550 694-718, FITC on the N-terminus)
T5 peptide (looked up): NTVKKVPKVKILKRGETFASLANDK

T6: FITC-labeled Dcp2-UBD1 peptide (aa 456-479) (S. cerevisiae, UniProt P53550 456-479, FITC on the N-terminus)
T6 peptide (looked up): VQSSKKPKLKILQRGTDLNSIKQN

B1: CBP-Upf1-Ct (domain or fragment, S. cerevisiae, UniProt P30771 852-971, looked up)
chain: PQPRKTERPMNAQFNVESEMGDFPKFQDFDAQSMVSFSGQIGDFGNAFVDNTELSSYINNEYWNFENFKSAFSQKQNRNEIDDRNLYQEEASHLNSNFARELQREEQKHELSKDFSNLGI
B2: His-tagged Nmd4 (natural protein, S. cerevisiae, UniProt Q12129 1-218, looked up)
chain: MTQYNFIIDASAFEKGLGNIKRWCSDCTEAVTLNFYIPTFTLNELDFLQQRRKSFAARESLKFIDRLDDSKFANLKVFIEFPEVLDIILWSDVMEHNDSSGKINIAKLPKRLKNLLKSCIYKCYLEGNEGLHWFLISEDPQIREMAMQCNIPSCSIVDVDSILSKDMNDKSFRESEKFNNMMLKNGTKEESENGREIIRTNFNKTVYASRGTGELWSP
B3: Upf2(933-1089)-His (domain or fragment, S. cerevisiae, UniProt P38798 933-1089, looked up)
chain: SDSDLEYGGDLDADRDIEMKRMYEEYERKLKDEEERKAEEELERQFQKMMQESIDARKSEKVVASKIPVISKPVSVQKPLLLKKSEEPSSSKETYEELSKPKKIAFTFLTKSGKKTQSRILQLPTDVKFVSDVLEEEEKLKTERNKIKKIVLKRSFD
B4: CBP-Upf1-CH-His (domain or fragment)
chain: SPSASDNSCAYCGIDSAKCVIKCNSCKKWFCNTKNGTSSSHIVNHLVLSHHNVVSLHPDSDLGDTVLECYNCGRKNVFLLGFVSAKSEAVVVLLCRIPCAQTKNANWDTDQWQPLIEDRQLLSWVAEQPTEEEKLKARLITPSQISKLEAKWRSNKDATINDIDAPE

Tests used:
GST-Ebs1 (aa 1-591) = molecular target: T1, GST-Ebs1 (aa 1-591); test: pull-down
CBP-Upf1-FL = molecular target: T2, CBP-Upf1-FL; test: pull-down
CBP-Upf1-CH-HD = molecular target: T3, CBP-Upf1-CH-HD; test: native gel or EMSA
CBP-Upf1-CH-HD I693R = molecular target: T4, CBP-Upf1-CH-HD I693R; test: pull-down
Upf2(933-1089)-His = molecular target: B3; test: fluorescence polarisation
[1] = molecular target: the molecule itself; test: SDS-PAGE band of the dimer
[2] = molecular target: T5, FITC-labeled Dcp2-UBD2 peptide (aa …); test: fluorescence polarisation
[3] = molecular target: T6, FITC-labeled Dcp2-UBD1 peptide (aa …); test: fluorescence polarisation

Binder: B1
- binding result (GST-Ebs1 (aa 1-591)): binds

Binder: B2
- binding result (CBP-Upf1-FL): binds
- binding result (CBP-Upf1-CH-HD): binds

Binder: B3
- binding result (CBP-Upf1-CH-HD I693R): binds

Binder: B4
- Kd (Upf2(933-1089)-His): 0.43 µM
- stoichiometry N [1]: 2
- Kd [2]: 25.1 µM
- Kd [3]: 60.1 µM
